In one series the target is T1, YTHDF2 YTH domain (UniProt Q9Y5A9 383-553).
T1 sequence: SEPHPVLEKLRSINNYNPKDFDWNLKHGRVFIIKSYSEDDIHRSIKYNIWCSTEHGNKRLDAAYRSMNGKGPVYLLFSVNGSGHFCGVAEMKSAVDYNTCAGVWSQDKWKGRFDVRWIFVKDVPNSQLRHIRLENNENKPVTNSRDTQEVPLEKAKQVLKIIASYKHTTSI
Conditions: protein: recombinant; tags: N-terminal His6 and GST; label: none.

The target in another series is YTHDC1 YTH domain (UniProt Q96MU7 345-509). Nature of the series: EMSA; 20 nM RNA; FP: 20 mM HEPES/KOH pH 7.5, 50 mM NaCl, 0.005% Tween 20, 1 mM GSH (DTT), 4 C; EMSA: 20 mM HEPES pH 8.2, 50 mM NaCl, 0.05% Triton X-100, 5% glycerol, 4 C, 0.5x T.
The next series concerns the target T2, YTHDF3 YTH domain (UniProt Q7Z739 391-585).
T2 sequence: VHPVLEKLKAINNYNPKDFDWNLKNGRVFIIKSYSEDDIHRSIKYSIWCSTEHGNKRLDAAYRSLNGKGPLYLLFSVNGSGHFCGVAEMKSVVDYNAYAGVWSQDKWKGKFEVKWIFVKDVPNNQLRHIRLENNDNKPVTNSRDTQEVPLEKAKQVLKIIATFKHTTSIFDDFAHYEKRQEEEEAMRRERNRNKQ
As to conditions: protein: recombinant.

For the next series, the target named is T3, YTHDF1 YTH domain (UniProt Q9BYJ9 375-552).
T3 sequence: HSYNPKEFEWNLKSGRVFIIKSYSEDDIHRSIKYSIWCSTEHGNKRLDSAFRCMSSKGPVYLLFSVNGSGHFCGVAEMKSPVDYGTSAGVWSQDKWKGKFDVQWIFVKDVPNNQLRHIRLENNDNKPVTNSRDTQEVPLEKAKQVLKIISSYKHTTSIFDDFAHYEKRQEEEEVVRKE
As to conditions: protein: recombinant.

The target in another series is T4, YTHDC2 YTH domain (UniProt Q9H6S0 1285-1424).
T4 sequence: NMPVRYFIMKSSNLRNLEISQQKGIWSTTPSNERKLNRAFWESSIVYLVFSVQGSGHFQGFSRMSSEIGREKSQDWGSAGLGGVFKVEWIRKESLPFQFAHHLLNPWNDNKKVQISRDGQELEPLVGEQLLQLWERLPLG
Conditions: protein: recombinant.

In general, IC50 refers to the concentration that gives 50% inhibition. Take UUCUUCUGUGGACUGUG (ssRNA, m6A at position 12) [unlabeled m6A RNA probe]: in the series with YTHDF2 YTH domain, the IC50 worked out at 115 nM.
Regarding UUCUUCUGUGGACUGUG (ssRNA, m6A at position 12) [FAM-17mer m6A RNA probe], the binding result with YTHDC1 YTH domain, with YTHDF3 YTH domain, with YTHDF1 YTH domain and in the series with YTHDC2 YTH domain was “binds” throughout.
